Test system: MS2 coat protein
Assay: apparent KD of MS2 coat protein; designed switch direction (-1 OFF switch, 1 ON switch): -1; higher = weaker reporter binding
In short: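 Apparent KD, taken as the median over clusters for each design, was obtained by curve-fitting normalised cluster fluorescence. Designed RNA switches had been transcribed on Illumina chips by stalled E. coli RNA polymerase and titrated with SNAP-549-labelled MS2 coat protein, doubling from 0.7 or 1.5 nM to 3 µM.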

[1] = input ligand: microRNA oligo, concentration not stated
[2] = Eterna round: R95, input ligand: microRNA oligo, concentration not stated
[3] = Eterna round: R95, input ligand: FMN 200 uM
[4] = Eterna round: R95, input ligand: none

With “ACAUGAGGAUCACCCAUGUAAACGUAAUGGCUCAUGUAGAGUCAGGAUAUGCGUGGCGAACUCGCGCAGAAGGGACAAGACUGG [Deportation 22 - Jieux - Exclusion NG 3] (Eterna round: R96, puzzle: Exclusion NG 3)” the “apparent KD of MS2 coat protein” value (input ligand: FMN 200 uM) was 30.4 nM, the “apparent KD of MS2 coat protein” value [1] was 23.7 nM and the “apparent KD of MS2 coat protein” value (input ligand: none) was 28.6 nM.

For “ACAUGAGGAUCACCCAUGUAAUGAAGGGUACUAUAUUAAACGUAGGAUAUCGAUGUAAGUUUGUUCGAGAAGGACGAUUGCCUU [JR_ExcNG3_Sub053] (Eterna round: R96, puzzle: Exclusion NG 3)”, the “apparent KD of MS2 coat protein” value (input ligand: FMN 200 uM) was 28.1 nM, the “apparent KD of MS2 coat protein” value [1] was 38.6 nM and the “apparent KD of MS2 coat protein” value (input ligand: none) was 75.8 nM.

With “ACAUGAGGAUCACCCAUGUCCGUCUGGUCUGUCUCGGCUGUCGAGGAUAUAGCUCGGUAUCCGCGCUAGAAGGCGGGAGCCGGU [Aenatbe mod 92] (Eterna round: R96, puzzle: Exclusion NG 3)” the “apparent KD of MS2 coat protein” value (input ligand: FMN 200 uM) was 30.9 nM, the “apparent KD of MS2 coat protein” value [1] was 31.8 nM and the “apparent KD of MS2 coat protein” value (input ligand: none) was 35 nM.

In the case of “ACAUGAGGAUCACCCAUGUCUGGCUGGUCCGUCUCGGCUGUCGAGGAUAUAGCUCGGUGUCCGCGCUAGAAGGCGGGAGCUGGU [Aenatbe mod 82] (Eterna round: R96, puzzle: Exclusion NG 3)”, the “apparent KD of MS2 coat protein” value (input ligand: FMN 200 uM) is reported as 631 nM, the “apparent KD of MS2 coat protein” value [1] is reported as 78 nM and the “apparent KD of MS2 coat protein” value (input ligand: none) is reported as 143 nM.

For “ACAUGAGGAUCACCCAUGUGAAAAGAAUGGCUGACACAGAGAUAGGAUAUAGGUGCAUAUCUAACCUAGAAGGGUCAUGACUGG [Deportation 77 - Jieux - Exclusion NG 3] (Eterna round: R96, puzzle: Exclusion NG 3)”, the “apparent KD of MS2 coat protein” value (input ligand: FMN 200 uM) was 23.5 nM, the “apparent KD of MS2 coat protein” value [1] was 22.3 nM and the “apparent KD of MS2 coat protein” value (input ligand: none) was 33 nM.

In the case of “ACAUGAGGAUCACCCAUGUGACAAUAAUGGCUGAUACAGAGACAGGAUAUUCGUGAAUAUCUAACGAAGAAGGGUCAUGACUGG [Deportation 69 - Jieux - Exclusion NG 3] (Eterna round: R96, puzzle: Exclusion NG 3)”, the “apparent KD of MS2 coat protein” value (input ligand: FMN 200 uM) is reported as 37.9 nM, the “apparent KD of MS2 coat protein” value [1] is reported as 45.7 nM and the “apparent KD of MS2 coat protein” value (input ligand: none) is reported as 51.8 nM.

For “ACAUGAGGAUCACCCAUGUGACCACGAUGGCUGAUGUAAAGACAGGAUAUGUGUGAAUAUCUAACACAGAAGGGUCUUGACUGG [Deportation 56 - Jieux - Exclusion NG 3] (Eterna round: R96, puzzle: Exclusion NG 3)”, the “apparent KD of MS2 coat protein” value (input ligand: FMN 200 uM) was 33.8 nM, the “apparent KD of MS2 coat protein” value [1] was 32.6 nM and the “apparent KD of MS2 coat protein” value (input ligand: none) was 33.2 nM.

With “ACAUGAGGAUCACCCAUGUUGUACUGGAUAGGGUGGUCCAGGUAGGAUAUGCAAACGCGUUGCGAGCAGAAGGACCACAGCCAG [Ceed] (Eterna round: R96, puzzle: Exclusion NG 3)” the “apparent KD of MS2 coat protein” value (input ligand: FMN 200 uM) was 49.8 nM, the “apparent KD of MS2 coat protein” value [1] was 29.4 nM and the “apparent KD of MS2 coat protein” value (input ligand: none) was 35.3 nM.

In the case of “ACAUGUAAUGCAGGAUAUGGGACACAUGAGGAUCACCCAUGUUACCAUAUGUAAUGCUAAGAGUCUCAGAAGGGUAUGUACAUG [Ex NG2 #47] (Eterna round: R96, puzzle: Exclusion NG 2)”, the “apparent KD of MS2 coat protein” value (input ligand: FMN 200 uM) is reported as 8.6 nM, the “apparent KD of MS2 coat protein” value [1] is reported as 12.2 nM and the “apparent KD of MS2 coat protein” value (input ligand: none) is reported as 15.6 nM.

With “ACAUGUAAUGUAGGAUAUUUUACACAUGAGGAUCACCCAUGUAACCGGAGGCUUUACUAUGAGUAAGAGAAGGGUAUGUACAUG [Ex NG2 #63] (Eterna round: R96, puzzle: Exclusion NG 2)” the “apparent KD of MS2 coat protein” value (input ligand: FMN 200 uM) was 90.5 nM, the “apparent KD of MS2 coat protein” value [1] was 85.2 nM and the “apparent KD of MS2 coat protein” value (input ligand: none) was 131 nM.

For “ACAUGUACAGAGGAUAUGCGCCUUGGCAAUGGUGUAGAAGGCUGAACAUGAGGAUCACCCAUGUGCAAUCCAAC [EX6 A.5] (Eterna round: R97, puzzle: Exclusion 6)”, the “apparent KD of MS2 coat protein” value (input ligand: FMN 200 uM) was 378 nM and the “apparent KD of MS2 coat protein” value (input ligand: none) was 55.4 nM.

In the case of “ACAUGUAUUGCAGGAUAUGGGACACAUGAGGAUCACCCAUGUGACUACAUGUCAUGCCACGGGUCUCAGAAGGGUAUGUACAUG [Ex NG2 #41] (Eterna round: R96, puzzle: Exclusion NG 2)”, the “apparent KD of MS2 coat protein” value (input ligand: FMN 200 uM) is reported as 23.3 nM, the “apparent KD of MS2 coat protein” value [1] is reported as 12.1 nM and the “apparent KD of MS2 coat protein” value (input ligand: none) is reported as 14.9 nM.

With “ACAUGUCAUUGAGGAUAUCGCACACAUGAGGAUCACCCAUGUAAACGGAUGCUCUUUCGUGGGUUCGAGAAGGCGAUGUACAUU [Ex NG2 #96] (Eterna round: R96, puzzle: Exclusion NG 2)” the “apparent KD of MS2 coat protein” value (input ligand: FMN 200 uM) was 136 nM, the “apparent KD of MS2 coat protein” value [1] was 49 nM and the “apparent KD of MS2 coat protein” value (input ligand: none) was 88 nM.

In the case of “ACAUGUCAUUGAGGAUAUUGCACACAUGAGGAUCACCCAUGUAAACGGAUGCUCUUACGUGGGUUCGAGAAGGCGAUGUACAUU [Ex NG2 #94] (Eterna round: R96, puzzle: Exclusion NG 2)”, the “apparent KD of MS2 coat protein” value (input ligand: FMN 200 uM) is reported as 156 nM, the “apparent KD of MS2 coat protein” value [1] is reported as 186 nM and the “apparent KD of MS2 coat protein” value (input ligand: none) is reported as 252 nM.

For “ACAUGUUAUCCAUGAUAUCACAUGAGGAUCACCCAUGUUAUGGCGAUUUUGAGGUGUAAGCUUUGUGCUCGACUUAU [JR_STOV1_Sub056] (Eterna round: R97, puzzle: Sensor, turn-off variant 1)”, the “apparent KD of MS2 coat protein” value (input ligand: FMN 200 uM) was 45 nM and the “apparent KD of MS2 coat protein” value (input ligand: none) was 50 nM.

With “ACAUUACAUGAGGAUCACCCAUGUGAGGAUAUGGUGCGGUAGUGUCCUGUCGCGUACUCCAGAAGGCGCGGGUG [1st #46] (Eterna round: R97, puzzle: Exclusion 1)” the “apparent KD of MS2 coat protein” value (input ligand: FMN 200 uM) was 174 nM and the “apparent KD of MS2 coat protein” value (input ligand: none) was 194 nM.

For “ACAUUGAAUGUGAGGAUAUCGAUGUGAUGGGUUGUCGAGAAGGCACAUGAGGAUCACCCAUGUGGGAUGUAGCA [JR_BMEx4_Sub033] (Eterna round: R97, puzzle: Brourd's mod of Exclusion 4)”, the “apparent KD of MS2 coat protein” value (input ligand: FMN 200 uM) was 349 nM and the “apparent KD of MS2 coat protein” value (input ligand: none) was 91.2 nM.

In the case of “ACCAAAGCAGUAGGAUAUACGCACAUGAGGAUCACCCAUGUAGCACGUCUCCAGACACCGAAUGCGUAGAAGGACUGCGCGCAA [Eternabot solution 3] (Eterna round: R96, puzzle: Exclusion NG 2)”, the “apparent KD of MS2 coat protein” value (input ligand: FMN 200 uM) is reported as 7.86 nM, the “apparent KD of MS2 coat protein” value [1] is reported as 4.69 nM and the “apparent KD of MS2 coat protein” value (input ligand: none) is reported as 17 nM.

With “ACCAAGCUAGGAUAUGCUUGGGCUCAAAUAAAUAAACACAAACAUGAGGAUCACCCAUGUAGAAGGAGCUUGCU [Zaabiquer] (puzzle: Exclusion 2)” the “apparent KD of MS2 coat protein” value [2] was 12.6 nM.

For “ACCGAACAUGAGGAUCACCCAUGUAAGGAUAUCCGUGGACAGCGCCAAAGUUACCGGCGGAGAAGGUGCAUGGU (Eterna round: R97, puzzle: Exclusion 1)”, the “apparent KD of MS2 coat protein” value (input ligand: FMN 200 uM) was 24.6 nM and the “apparent KD of MS2 coat protein” value (input ligand: none) was 19.2 nM.

“ACCGUGUAAGGAUAUCGAGGCCGAGGAAGUCGCAUGGCCUGUGAGAAGGUACAUGAGGAUCACCCAUGUCCCAU [Eternabot (L2) Solution 6] (Eterna round: R97, puzzle: Exclusion 4)” was tested, and the “apparent KD of MS2 coat protein” value (input ligand: FMN 200 uM) was 28.7 nM and the “apparent KD of MS2 coat protein” value (input ligand: none) was 27.6 nM.

For “ACCUCACAUGAGGAUCACCCAUGUCAGGAUAUAUUGUGCAAGCGCCGUGGCGUAUGUAGUAGAAGGGACGAAAC [Eternabot (L1) Solution 77] (Eterna round: R97, puzzle: Exclusion 1)”, the “apparent KD of MS2 coat protein” value (input ligand: FMN 200 uM) was 18.3 nM and the “apparent KD of MS2 coat protein” value (input ligand: none) was 17.8 nM.

With “ACCUCACAUGAGGAUCACCCAUGUCAGGAUAUGUACCCGAUCAAGUCAGAGAUUGGGAGCAGAAGGGACUGCGG [Leesla] (puzzle: Exclusion 1)” the “apparent KD of MS2 coat protein” value [2] was 104 nM.

In the case of “ACCUCUAUCUAGGAUAUUGGAACCCGGUUAAAACAAGAAGGAGAUACAUGAGGAUCACCCAUGUUAACGAUGGA [Ereseninso] (puzzle: Exclusion 6)”, the “apparent KD of MS2 coat protein” value [3] is reported as 97.5 nM, the “apparent KD of MS2 coat protein” value [2] is reported as 23.3 nM and the “apparent KD of MS2 coat protein” value [4] is reported as 28.5 nM.

“ACGAUGACCGAAAAGUGUAAACUGACAUGAGGAUCACCCAUGUAGGAUAUGGCUACGAAAAGUAGUCAGAAGGGCAUGUCAUCA [Omei Exc(NG) 3 Av9] (Eterna round: R96, puzzle: Exclusion NG 3)” was tested, and the “apparent KD of MS2 coat protein” value (input ligand: FMN 200 uM) was 16 nM, the “apparent KD of MS2 coat protein” value [1] was 16.4 nM and the “apparent KD of MS2 coat protein” value (input ligand: none) was 20.9 nM.

For “ACGGACGCAGGAUAUCGCACCGGAGACUUGAGGAUCACCCAAGUGGUUUUCCCUUCGCAACGAGAAGGGCGACCUA [Tiarle] (Eterna round: R97, puzzle: Exclusion 5)”, the “apparent KD of MS2 coat protein” value (input ligand: FMN 200 uM) was 55.7 nM and the “apparent KD of MS2 coat protein” value (input ligand: none) was 35.2 nM.

For “ACGUGAUAUCUGUCGGUGGACAUGAGGAUCACCCAUGUGAGCUUUUUGCUCGUCUUGUAACCCGGUGACAGACCUUC [Encetia] (puzzle: Sensor v3, turn-off variant 1)”, the “apparent KD of MS2 coat protein” value [3] was 22.4 nM, the “apparent KD of MS2 coat protein” value [2] was 213 nM and the “apparent KD of MS2 coat protein” value [4] was 22.3 nM.

“ACGUGAUAUCUGUCGUUGGACAUGAGGAUCACCCAUGUGAGCUUUUUGCUCGUCUUAUAACCCGGUGACAGACCUUC [Aatbebeed] (puzzle: Sensor v3, turn-off variant 1)” was tested, and the “apparent KD of MS2 coat protein” value [3] was 18.4 nM, the “apparent KD of MS2 coat protein” value [2] was 247 nM and the “apparent KD of MS2 coat protein” value [4] was 16.6 nM.

“ACGUGCACUCAGGAUAUGCUACGCCUGCUCUCAGCAGAAGGGAGUACAUGAGGAUCACCCAUGUGACAUCUGAU [Eternabot (Original) Solution 13] (Eterna round: R97, puzzle: Exclusion 6)” was tested, and the “apparent KD of MS2 coat protein” value (input ligand: FMN 200 uM) was 44.3 nM and the “apparent KD of MS2 coat protein” value (input ligand: none) was 26 nM.

— the supplement of paper PMC9170038
